Numbered stars: 1 amine (or outer) side, 2 acyl side, 3 side chain; on linkers, the order of the positions; unused ones are H or OH. Bridge positions count the residues as written; N and C are the ends. Side chains are listed from the residue outwards. Ends that are not written are not given here. * marks the point of attachment. C20 diacid = O=C(O)CCCCCCCCCCCCCCCCCCC(=O)*; γGlu = O=C(O)[C@H](CCC(=O)[*:2])N[*:1]
T1: rat calcitonin receptor (rat, UniProt P32214 25-516)
T1 construct: whole, on cells; also called rCTR; rat calcitonin (a) receptor
T1 sequence (looked up): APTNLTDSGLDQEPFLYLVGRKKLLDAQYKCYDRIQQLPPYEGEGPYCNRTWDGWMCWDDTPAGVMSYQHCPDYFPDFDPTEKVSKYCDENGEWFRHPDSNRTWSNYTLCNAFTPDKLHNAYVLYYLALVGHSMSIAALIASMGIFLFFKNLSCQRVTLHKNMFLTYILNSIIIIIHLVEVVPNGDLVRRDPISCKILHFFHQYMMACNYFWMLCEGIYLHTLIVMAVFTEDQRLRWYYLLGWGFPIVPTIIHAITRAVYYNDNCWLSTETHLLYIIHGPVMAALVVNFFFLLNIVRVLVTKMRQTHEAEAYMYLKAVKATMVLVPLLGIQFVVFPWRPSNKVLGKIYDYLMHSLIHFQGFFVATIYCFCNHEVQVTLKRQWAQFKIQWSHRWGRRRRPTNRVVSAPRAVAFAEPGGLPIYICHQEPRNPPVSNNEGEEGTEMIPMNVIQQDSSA

T2: rat amylin receptor (rat calcitonin receptor + rat RAMP 3) (rat, UniProt P32214 25-516; Q9JJ73 23-147)
T2 construct: whole, on cells; also called rAmylin-R; rat amylin 3(a) receptor
T2 sequence (looked up) 1: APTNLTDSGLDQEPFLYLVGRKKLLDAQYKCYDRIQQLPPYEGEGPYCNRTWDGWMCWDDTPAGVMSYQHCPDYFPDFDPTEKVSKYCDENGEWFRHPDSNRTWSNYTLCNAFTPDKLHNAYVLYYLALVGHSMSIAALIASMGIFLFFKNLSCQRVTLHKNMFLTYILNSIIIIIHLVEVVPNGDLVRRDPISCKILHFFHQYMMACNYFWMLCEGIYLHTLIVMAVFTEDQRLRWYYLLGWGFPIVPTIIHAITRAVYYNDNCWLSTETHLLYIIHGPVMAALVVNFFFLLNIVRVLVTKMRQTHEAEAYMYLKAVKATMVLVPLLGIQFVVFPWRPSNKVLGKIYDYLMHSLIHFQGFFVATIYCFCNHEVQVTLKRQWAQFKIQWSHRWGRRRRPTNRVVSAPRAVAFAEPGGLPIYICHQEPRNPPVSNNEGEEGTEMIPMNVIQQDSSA
T2 sequence (looked up) 2: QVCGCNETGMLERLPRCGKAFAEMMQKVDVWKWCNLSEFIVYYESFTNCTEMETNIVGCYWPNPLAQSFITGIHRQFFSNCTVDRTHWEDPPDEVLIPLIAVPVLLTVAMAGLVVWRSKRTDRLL

T3: human calcitonin receptor (human, UniProt P30988 25-474)
T3 construct: whole, on cells; also called hCTR; hCT
T3 sequence (looked up): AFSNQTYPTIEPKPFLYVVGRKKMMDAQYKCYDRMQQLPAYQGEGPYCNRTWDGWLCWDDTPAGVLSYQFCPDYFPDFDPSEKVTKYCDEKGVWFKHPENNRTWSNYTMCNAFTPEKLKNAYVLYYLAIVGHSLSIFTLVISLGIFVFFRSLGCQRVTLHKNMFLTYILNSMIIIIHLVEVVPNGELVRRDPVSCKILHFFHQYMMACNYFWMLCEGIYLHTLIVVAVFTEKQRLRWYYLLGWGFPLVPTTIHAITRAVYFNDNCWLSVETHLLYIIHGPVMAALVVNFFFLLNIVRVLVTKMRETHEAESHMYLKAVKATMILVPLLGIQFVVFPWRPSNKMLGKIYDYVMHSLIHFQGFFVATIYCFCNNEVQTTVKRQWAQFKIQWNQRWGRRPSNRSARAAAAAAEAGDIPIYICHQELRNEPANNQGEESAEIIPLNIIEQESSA


Experiments:
rat calcitonin receptor [1] = molecular target: T1, rat calcitonin receptor; experiment: ratio of binding IC50s: rat calcitonin receptor over rat amylin receptor (reference)
[2] = molecular target: T2, rat amylin receptor (rat calcitonin …); experiment: SPA competition with 125I-rat amylin, membranes of BHK cells with rat calcitonin receptor + rat RAMP3 (Assay VI)
rat calcitonin receptor [3] = molecular target: T1, rat calcitonin receptor; experiment: SPA competition with 125I-calcitonin, membranes of BHK cells with rat calcitonin receptor (Assay VIII)
[4] = molecular target: T3, human calcitonin receptor; experiment: ratio of binding IC50s: human calcitonin receptor over human amylin receptor (reference)
How it was run: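 Competition binding by SPA with cell membranes (35 ng/μL) and SPA beads in 50 mM Hepes pH 7.4 with 1 mM CaCl2, 5 mM MgCl2, 0.1% OA and 0.02% Tween20. Incubated 120 min at 25 °C with shaking, then counted.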

| Binder | Ratio rCT/rAmylin binding (rat calcitonin receptor [1]) | IC50 [2] [nM] | IC50 (rat calcitonin receptor [3]) [nM] | Ratio hCT/hAmylin binding [4] |
| --- | --- | --- | --- | --- |
| K([γGlu-C20 diacid])CNTATCATQRLARFLRHSSPNFGAIPSSTNVGPNTY-NH2 (disulfide 2-7; N-terminus assumed; SMILES CC[C@H](C)[C@H](NC(=O)[C@H](C)NC(=O)CNC(=O)[C@H](Cc1ccccc1)NC(=O)[C@H](CC(N)=O)NC(=O)[C@@H]1CCCN1C(=O)[C@H](CO)NC(=O)[C@H](CO)NC(=O)[C@H](Cc1c[nH]cn1)NC(=O)[C@H](CCCNC(=N)N)NC(=O)[C@H](CC(C)C)NC(=O)[C@H](Cc1ccccc1)NC(=O)[C@H](CCCNC(=N)N)NC(=O)[C@H](C)NC(=O)[C@H](CC(C)C)NC(=O)[C@H](CCCNC(=N)N)NC(=O)[C@H](CCC(N)=O)NC(=O)[C@@H](NC(=O)[C@H](C)NC(=O)[C@@H]1CSSC[C@H](NC(=O)[C@@H](N)CCCCNC(=O)CC[C@H](NC(=O)CCCCCCCCCCCCCCCCCCC(=O)O)C(=O)O)C(=O)N[C@@H](CC(N)=O)C(=O)N[C@@H]([C@@H](C)O)C(=O)N[C@@H](C)C(=O)N[C@@H]([C@@H](C)O)C(=O)N1)[C@@H](C)O)C(=O)N1CCC[C@H]1C(=O)N[C@@H](CO)C(=O)N[C@@H](CO)C(=O)N[C@H](C(=O)N[C@@H](CC(N)=O)C(=O)N[C@H](C(=O)NCC(=O)N1CCC[C@H]1C(=O)N[C@@H](CC(N)=O)C(=O)N[C@H](C(=O)N[C@@H](Cc1ccc(O)cc1)C(N)=O)[C@@H](C)O)C(C)C)[C@@H](C)O, synthetic analogue of human amylin; also called compound 65) | 93.2 | 1.16 | 108 | 82.4 |
| K([γGlu-C20 diacid])CNTATCATQRLARFLRHSSPNFGAIPSSTNVGSNTY-NH2 (disulfide 2-7; N-terminus assumed; SMILES CC[C@H](C)[C@H](NC(=O)[C@H](C)NC(=O)CNC(=O)[C@H](Cc1ccccc1)NC(=O)[C@H](CC(N)=O)NC(=O)[C@@H]1CCCN1C(=O)[C@H](CO)NC(=O)[C@H](CO)NC(=O)[C@H](Cc1c[nH]cn1)NC(=O)[C@H](CCCNC(=N)N)NC(=O)[C@H](CC(C)C)NC(=O)[C@H](Cc1ccccc1)NC(=O)[C@H](CCCNC(=N)N)NC(=O)[C@H](C)NC(=O)[C@H](CC(C)C)NC(=O)[C@H](CCCNC(=N)N)NC(=O)[C@H](CCC(N)=O)NC(=O)[C@@H](NC(=O)[C@H](C)NC(=O)[C@@H]1CSSC[C@H](NC(=O)[C@@H](N)CCCCNC(=O)CC[C@H](NC(=O)CCCCCCCCCCCCCCCCCCC(=O)O)C(=O)O)C(=O)N[C@@H](CC(N)=O)C(=O)N[C@@H]([C@@H](C)O)C(=O)N[C@@H](C)C(=O)N[C@@H]([C@@H](C)O)C(=O)N1)[C@@H](C)O)C(=O)N1CCC[C@H]1C(=O)N[C@@H](CO)C(=O)N[C@@H](CO)C(=O)N[C@H](C(=O)N[C@@H](CC(N)=O)C(=O)N[C@H](C(=O)NCC(=O)N[C@@H](CO)C(=O)N[C@@H](CC(N)=O)C(=O)N[C@H](C(=O)N[C@@H](Cc1ccc(O)cc1)C(N)=O)[C@@H](C)O)C(C)C)[C@@H](C)O, synthetic analogue of human amylin; also called compound 83) [N^ε1-[(4S)-4-carboxy-4-(19-carboxynonadecanoylamino)butanoyl]-[Arg14,Arg17,Pro21,Pro27]-h-amylin] | 49.7 | 2.83 | 140 | 146 |
| K([γGlu-C20 diacid])CNTATCATQRLANFLRHSSPNFGAIPSSTNVGSHTY-NH2 (disulfide 2-7; N-terminus assumed; SMILES CC[C@H](C)[C@H](NC(=O)[C@H](C)NC(=O)CNC(=O)[C@H](Cc1ccccc1)NC(=O)[C@H](CC(N)=O)NC(=O)[C@@H]1CCCN1C(=O)[C@H](CO)NC(=O)[C@H](CO)NC(=O)[C@H](Cc1c[nH]cn1)NC(=O)[C@H](CCCNC(=N)N)NC(=O)[C@H](CC(C)C)NC(=O)[C@H](Cc1ccccc1)NC(=O)[C@H](CC(N)=O)NC(=O)[C@H](C)NC(=O)[C@H](CC(C)C)NC(=O)[C@H](CCCNC(=N)N)NC(=O)[C@H](CCC(N)=O)NC(=O)[C@@H](NC(=O)[C@H](C)NC(=O)[C@@H]1CSSC[C@H](NC(=O)[C@@H](N)CCCCNC(=O)CC[C@H](NC(=O)CCCCCCCCCCCCCCCCCCC(=O)O)C(=O)O)C(=O)N[C@@H](CC(N)=O)C(=O)N[C@@H]([C@@H](C)O)C(=O)N[C@@H](C)C(=O)N[C@@H]([C@@H](C)O)C(=O)N1)[C@@H](C)O)C(=O)N1CCC[C@H]1C(=O)N[C@@H](CO)C(=O)N[C@@H](CO)C(=O)N[C@H](C(=O)N[C@@H](CC(N)=O)C(=O)N[C@H](C(=O)NCC(=O)N[C@@H](CO)C(=O)N[C@@H](Cc1c[nH]cn1)C(=O)N[C@H](C(=O)N[C@@H](Cc1ccc(O)cc1)C(N)=O)[C@@H](C)O)C(C)C)[C@@H](C)O, synthetic analogue of human amylin; also called compound 60) [N^ε1-[(4S)-4-carboxy-4-(19-carboxynonadecanoylamino)butanoyl]-[Arg17,Pro21,Pro27,His35]-h-amylin] | 122 | 0.215 | 26.3 | 45.2 |
| K([γGlu-C20 diacid])CNTATCATQRLANFLRHSSPNFGAIPSSTNVGRNTY-NH2 (disulfide 2-7; N-terminus assumed; SMILES CC[C@H](C)[C@H](NC(=O)[C@H](C)NC(=O)CNC(=O)[C@H](Cc1ccccc1)NC(=O)[C@H](CC(N)=O)NC(=O)[C@@H]1CCCN1C(=O)[C@H](CO)NC(=O)[C@H](CO)NC(=O)[C@H](Cc1c[nH]cn1)NC(=O)[C@H](CCCNC(=N)N)NC(=O)[C@H](CC(C)C)NC(=O)[C@H](Cc1ccccc1)NC(=O)[C@H](CC(N)=O)NC(=O)[C@H](C)NC(=O)[C@H](CC(C)C)NC(=O)[C@H](CCCNC(=N)N)NC(=O)[C@H](CCC(N)=O)NC(=O)[C@@H](NC(=O)[C@H](C)NC(=O)[C@@H]1CSSC[C@H](NC(=O)[C@@H](N)CCCCNC(=O)CC[C@H](NC(=O)CCCCCCCCCCCCCCCCCCC(=O)O)C(=O)O)C(=O)N[C@@H](CC(N)=O)C(=O)N[C@@H]([C@@H](C)O)C(=O)N[C@@H](C)C(=O)N[C@@H]([C@@H](C)O)C(=O)N1)[C@@H](C)O)C(=O)N1CCC[C@H]1C(=O)N[C@@H](CO)C(=O)N[C@@H](CO)C(=O)N[C@H](C(=O)N[C@@H](CC(N)=O)C(=O)N[C@H](C(=O)NCC(=O)N[C@@H](CCCNC(=N)N)C(=O)N[C@@H](CC(N)=O)C(=O)N[C@H](C(=O)N[C@@H](Cc1ccc(O)cc1)C(N)=O)[C@@H](C)O)C(C)C)[C@@H](C)O, synthetic analogue of human amylin; also called compound 79) [N^ε1-[(4S)-4-carboxy-4-(19-carboxynonadecanoylamino)butanoyl]-[Arg17,Pro21,Pro27,Arg34]-h-amylin] | 21.5 | 1.65 | 35.5 | 46.1 |
| K([γGlu-C20 diacid])CNTATCATQRLANFLRHSSPNFGAIPSSTNVGHNTY-NH2 (disulfide 2-7; N-terminus assumed; SMILES CC[C@H](C)[C@H](NC(=O)[C@H](C)NC(=O)CNC(=O)[C@H](Cc1ccccc1)NC(=O)[C@H](CC(N)=O)NC(=O)[C@@H]1CCCN1C(=O)[C@H](CO)NC(=O)[C@H](CO)NC(=O)[C@H](Cc1c[nH]cn1)NC(=O)[C@H](CCCNC(=N)N)NC(=O)[C@H](CC(C)C)NC(=O)[C@H](Cc1ccccc1)NC(=O)[C@H](CC(N)=O)NC(=O)[C@H](C)NC(=O)[C@H](CC(C)C)NC(=O)[C@H](CCCNC(=N)N)NC(=O)[C@H](CCC(N)=O)NC(=O)[C@@H](NC(=O)[C@H](C)NC(=O)[C@@H]1CSSC[C@H](NC(=O)[C@@H](N)CCCCNC(=O)CC[C@H](NC(=O)CCCCCCCCCCCCCCCCCCC(=O)O)C(=O)O)C(=O)N[C@@H](CC(N)=O)C(=O)N[C@@H]([C@@H](C)O)C(=O)N[C@@H](C)C(=O)N[C@@H]([C@@H](C)O)C(=O)N1)[C@@H](C)O)C(=O)N1CCC[C@H]1C(=O)N[C@@H](CO)C(=O)N[C@@H](CO)C(=O)N[C@H](C(=O)N[C@@H](CC(N)=O)C(=O)N[C@H](C(=O)NCC(=O)N[C@@H](Cc1c[nH]cn1)C(=O)N[C@@H](CC(N)=O)C(=O)N[C@H](C(=O)N[C@@H](Cc1ccc(O)cc1)C(N)=O)[C@@H](C)O)C(C)C)[C@@H](C)O, synthetic analogue of human amylin; also called compound 77) [N^ε1-[(4S)-4-carboxy-4-(19-carboxynonadecanoylamino)butanoyl]-[Arg17,Pro21,Pro27,His34]-h-amylin] | 137 | 1.5 | 205 | 118 |

Source: patent publication US20140087995A1 (published 2014)
